Laboratory results published in publication PMC3792966.

Molecular target: SspA of F. tularensis SCHU S4 fused to the Zif protein (F. tularensis SCHU S4)
Assay: two-hybrid

**Q.** Which results are given for “MglA of F. tularensis SCHU S4 fused to the ω subunit of E. coli RNA polymerase (natural protein)”?
**A.** β-galactosidase activity in strain AW23: 2400 AU; β-galactosidase activity in strain AW24: 26000 AU
